# According to patent publication US20110124071A1, “METHODS AND COMPOSITIONS FOR PRODUCING HYDROCARBONS” (priority 2009, published 2011):
# B1: RS991709941: Synechococcus sp. RS9917 putative decarbonylase (SEQ ID NO: 23) (protein, listed as Synechococcus sp.)
# chain: MPTLETSEVAVLEDSMASGSRLPDFTSEAYKDAYSRINAIVIEGEQEAHDNYIALGTLIPEQKDELARLARMEMKHMKGFTSCGRNLGVEADLPFAKEFFAPLHGNFQAALQEGKVVTCLLIQALLIEAFAISAYHIYIPVADPFARKITEGVVKDEYTHLNYGQEWLKANFEASKDELMEANKANLPLIRSMLEQVAADAAVLQMEKEDLIEDFLIAYQEALCEIGFSSRDIARMAAAALAV
# B2: gll3146: Gloeobacter violaceus PCC7421 putative decarbonylase (SEQ ID NO: 15) (protein, listed as Gloeobacter violaceus)
# chain: VNRTAPSSAALDYRSDTYRDAYSRINAIVLEGEREAHANYLTLAEMLPDHAEALKKLAAMENRHFKGFQSCARNLEVTPDDPFARAYFEQLDGNFQQAAAEGDLTTCMVIQALIIECFAIAAYNVYIPVADAFARKVTEGVVKDEYTHLNFGQQWLKERFVTVREGIERANAQNLPIVWRMLNAVEADTEVLQMDKEAIVEDFMIAYGEALGDIGFSMRDVMKMSARGLASAPRQ
# B3: PMM0532: Prochlorococcus marinus CCMP1986 putative decarbonylase (SEQ ID NO: 19) (protein, listed as Prochlorococcus marinus)
# chain: MQTLESNKKTNLENSIDLPDFTTDSYKDAYSRINAIVIEGEQEAHDNYISLATLIPNELEELTKLAKMELKHKRGFTACGRNLGVQADMIFAKEFFSKLHGNFQVALSNGKTTTCLLIQAILIEAFAISAYHVYIRVADPFAKKITQGVVKDEYLHLNYGQEWLKENLATCKDELMEANKVNLPLIKKMLDQVSEDASVLAMDREELMEEFMIAYQDTLLEIGLDNREIARMAMAAIV
# B4: alr5283: Nostoc sp. PCC7210 putative decarbonylase (SEQ ID NO: 7) (protein, listed as Nostoc sp.)
# chain: MQQVAADLEIDFKSEKYKDAYSRINAIVIEGEQEAYENYIQLSQLLPDDKEDLIRLSKMESRHKKGFEACGRNLQVSPDMEFAKEFFAGLHGNFQKAAAEGKIVTCLLIQSLIIECFAIAAYNIYIPVADDFARKITEGVVKDEYSHLNFGEVWLQKNFAQSKAELEEANRHNLPIVWKMLNQVADDAAVLAMEKEALVEDFMIQYGEALSNIGFTTRDIMRMSAYGLTAA
# B5: Cyan7425—0398: Cyanothece sp. PCC7425 putative decarbonylase (SEQ ID NO: 29) (protein, listed as Cyanothece sp.)
# chain: MPQVQSPSAIDFYSETYQDAYSRIDAIVIEGEQEAHDNYLKLTELLPDCQEDLVRLAKMEARHKKGFEACGRNLKVTPDMEFAQQFFADLHNNFQKAAAANKIATCLVIQALIIECFAIAAYNIYIPVADDFARKITENVVKDEYTHLNFGEEWLKANFDSQREEVEAANRENLPIVWRMLNQVETDAHVLGMEKEALVESFMIQYGEALENIGFSTREIMRMSVYGLSAA
# B6: tll1313: Thermosynechococcus elongatus BP-1 putative decarbonylase (SEQ ID NO: 11) (protein, listed as Thermosynechococcus elongatus)
# chain: MTTATATPVLDYHSDRYKDAYSRINAIVIEGEQEAHDNYIDLAKLLPQHQEELTRLAKMEARHKKGFEACGRNLSVTPDMEFAKAFFEKLRANFQRALAEGKTATCLLIQALIIESFAIAAYNIYIPMADPFARKITESVVKDEYSHLNFGEIWLKEHFESVKGELEEANRANLPLVWKMLNQVEADAKVLGMEKDALVEDFMIQYSGALENIGFTTREIMKMSVYGLTGA
# B7: PM1231: Prochlorococcus marinus MIT9313 putative decarbonylase (SEQ ID NO: 17) (protein, listed as Prochlorococcus marinus)
# chain: MPTLEMPVAAVLDSTVGSSEALPDFTSDRYKDAYSRINAIVIEGEQEAHDNYIAIGTLLPDHVEELKRLAKMEMRHKKGFTACGKNLGVEADMDFAREFFAPLRDNFQTALGQGKTPTCLLIQALLIEAFAISAYHTYIPVSDPFARKITEGVVKDEYTHLNYGEAWLKANLESCREELLEANRENLPLIRRMLDQVAGDAAVLQMDKEDLIEDFLIAYQESLTEIGFNTREITRMAAAALVS
# B8: PMN2A—1863: Prochlorococcus mariunus NATL2A putative decarbonylase (SEQ ID NO: 21) (protein, listed as Prochlorococcus marinus)
# chain: MQAFASNNLTVEKEELSSNSLPDFTSESYKDAYSRINAVVIEGEQEAYSNFLDLAKLIPEHADELVRLGKMEKKHMNGFCACGRNLAVKPDMPFAKTFFSKLHNNFLEAFKVGDTTTCLLIQCILIESFAISAYHVYIRVADPFAKRITEGVVQDEYLHLNYGQEWLKANLETVKKDLMRANKENLPLIKSMLDEVSNDAEVLHMDKEELMEEFMIAYQDSLLEIGLDNREIARMALAAVI
# B9: Cyan7425—2986: Cyanothece sp. PCC7425 putative decarbonylase (SEQ ID NO: 31) (protein, listed as Cyanothece sp.)
# chain: MSDCATNPALDYYSETYRNAYRRVNGIVIEGEKQAYDNFIRLAELLPEYQAELTRLAKMEARHQKSFVACGQNLKVSPDLDFAAQFFAELHQIFASAANAGQVATCLVVQALIIECFAIAAYNTYLPVADEFARKVTASVVQDEYSHLNFGEVWLQNAFEQCKDEIITANRLALPLIWKMLNQVTGELRILGMDKASLVEDFSTRYGEALGQIGFKLSEILSLSVQGLQAVTP
# B10: ATCC51142 cce—0778: Cyanothece sp. ATCC51142 putative decarbonylase (SEQ ID NO: 27) (protein, listed as Cyanothece sp.)
# chain: MQELALRSELDFNSETYKDAYSRINAIVIEGEQEAYQNYLDMAQLLPEDEAELIRLSKMENRHKKGFQACGKNLNVTPDMDYAQQFFAELHGNFQKAKAEGKIVTCLLIQSLIIEAFAIAAYNIYIPVADPFARKITEGVVKDEYTHLNFGEVWLKEHFEASKAELEDANKENLPLVWQMLNQVEKDAEVLGMEKEALVEDFMISYGEALSNIGFSTREIMKMSAYGLRAA
# Test system: E. coli MG1655 ΔfadD lacZ::Ptrc-′tesA
# Test: Heterologous expression in a fatty aldehyde-producing E. coli strain with MSMEG—5739, GC-MS
# Type: cell-based
# Settings: decarbonylase coexpressed with carboxylic acid reductase MSMEG—5739
row,Molecule,conversion of fatty aldehydes provided by MSMEG—5739 to alkanes
1,B1,converted fatty aldehydes provided by MSMEG—5739 to the corresponding alkanes
2,B2,converted fatty aldehydes provided by MSMEG—5739 to the corresponding alkanes
3,B3,converted fatty aldehydes provided by MSMEG—5739 to the corresponding alkanes
4,B4,converted fatty aldehydes provided by MSMEG—5739 to the corresponding alkanes

# Test system: E. coli MG1655
# Test: Coexpression of putative decarbonylase with S. elongatus PCC7942 orf1594 in E. coli, GC-MS of extracts
# Type: cell-based
# Settings: coexpressed with S. elongatus PCC7942 orf1594 in E. coli MG1655, M9 minimal media
# Procedure: After a 1 μl splitless injection (inlet temperature held at 300° C.) onto the GC/MS column, the oven was held at 100° C. for 3 mins. The temperature was ramped up to 320° C. at a rate of 20° C./min. The oven was held at 320° C. for an additional 5 min. The flow rate of the carrier gas helium was 1.3 ml/min. The MS quadrapole scanned from 50 to 550 m/z. Retention times and fragmentation patterns of product peaks were compared with authentic references to confirm peak identity.
# The genomic DNA encoding Synechococcus elongatus PCC7942 orf1594 (YP—400611; putative aldehyde-generating enzyme) (SEQ ID NO: 65) was amplified and cloned into the NcoI and EcoRI sites of vector OP-80 (pCL1920 derivative) under the control of the Ptrc promoter. The resulting construct (“OP80-PCC7942—1594”) was transformed into E. coli MG1655 and the cells were grown at 37° C. in M9 minimal media with 1% (w/v) glucose as carbon source and supplemented with 100 μg/ml spectinomycin. When the culture reached OD600 of 0.8-1.0, it was induced with 1 mM IPTG and cells were grown for an additional 18-20 h at 37° C. Cells from 0.5 ml of culture were extracted with 0.5 ml of ethyl acetate. After sonication for 60 min, the sample was centrifuged at 15,000 rpm for 5 min. The solvent layer was analyzed by GC-MS as described in Example 1.
# The genomic DNA encoding Synechococcus elongatus PCC7942 orf1593 (YP—400610; putative decarbonylase) (SEQ ID NO: 1) was amplified and cloned into the NdeI and XhoI sites of vector OP-183 (pACYC derivative) under the control of the Ptrc promoter. The resulting construct was cotransformed with OP80-PCC7942—1594 into E. coli MG1655 and the cells were grown at 37° C. in M9 minimal media supplemented with 100 μg/ml spectinomycin and 100 μg/ml carbenicillin. The cells were cultured and extracted as in Example 3 and analyzed by GC-MS as described in Example 1. […]
row,Molecule,fatty aldehyde decarbonylase activity (alkane/alkene production)
1,PCC7942—1593: Synechococcus elongatus PCC7942 orf1593 putative decarbonylase (SEQ ID NO: 1),active fatty aldehyde decarbonylase
2,B5,active fatty aldehyde decarbonylase
3,B1,active fatty aldehyde decarbonylase
4,B6,active fatty aldehyde decarbonylase
5,B2,active fatty aldehyde decarbonylase
6,B3,active fatty aldehyde decarbonylase
7,B7,active fatty aldehyde decarbonylase
8,B8,active fatty aldehyde decarbonylase
9,B4,active fatty aldehyde decarbonylase
10,B9,active fatty aldehyde decarbonylase
11,B10,active fatty aldehyde decarbonylase
